The text below walks through data of article doi:10.1101/2023.01.20.524915 (bioRxiv, 2023).

The data set concerns the molecule itself. Kind of data set: cryo-EM structure.

B1: human DNA polymerase theta helicase domain (Polθ-HLD), residues 67-940 (domain or fragment, UniProt O75417 67-940, looked up)
chain: DKLLLANWGLPKAVLEKYHSFGVKKMFEWQAECLLLGQVLEGKNLVYSAPTSAGKTLVAELLILKRVLEMRKKALFILPFVSVAKEKKYYLQSLFQEVGIKVDGYMGSTSPSRHFSSLDIAVCTIERANGLINRLIEENKMDLLGMVVVDELHMLGDSHRGYLLELLLTKICYITRKSASCQADLASSLSNAVQIVGMSATLPNLELVASWLNAELYHTDFRPVPLLESVKVGNSIYDSSMKLVREFEPMLQVKGDEDHVVSLCYETICDNHSVLLFCPSKKWCEKLADIIAREFYNLHHQAEGLVKPSECPPVILEQKELLEVMDQLRRLPSGLDSVLQKTVPWGVAFHHAGLTFEERDIIEGAFRQGLIRVLAATSTLSSGVNLPARRVIIRTPIFGGRPLDILTYKQMVGRAGRKGVDTVGESILICKNSEKSKGIALLQGSLKPVRSCLQRREGEEVTGSMIRAILEIIVGGVASTSQDMHTYAACTFLAASMKEGKQGIQRNQESVQLGAIEACVMWLLENEFIQSTEASDGTEGKVYHPTHLGSATLSSSLSPADTLDIFADLQRAMKGFVLENDLHILYLVTPMFEDWTTIDWYRFFCLWEKLPTSMKRVAELVGVEEGFLARCVKGKVVARTERQHRQMAIHKRFFTSLVLLDLISEVPLREINQKYGCNRGQIQSLQQSAAVYAGMITVFSNRLGWHNMELLLSQFQKRLTFGIQRELCDLVRVSLLNAQRARVLYASGFHTVADLARANIVEVEVILKNAVPFKSARKAVDEEEEAVEERRNMRTIWVTGRKGLTEREAAALIVEEARMILQQDLVEMGVQWNPCALLHSSTCSLTHSESEVKEHTFISQTKSSYKKLTSKNKS
By stoichiometry N is commonly meant a count of units in the complex or per binding partner. Regarding B1, the “stoichiometry N” value came out at 2.
